This is an account of results in the supplement of paper PMC10567573.

First the molecules themselves.
B1: CHMP4C (parent)
chain: TNIRLPNVPSSSLPAQPNRKPGMS
B2: FAM164A (parent)
chain: YDPDYIQCPYCQRRFNENAADRHI
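Further: lentivirally expressed fusions sorted by FACS into six bins by GFP to DsRed ratio, PSI derived from sequencing read proportions per bin multiplied by bin number.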

The variants in one data set derive from B1. The experiment in a line: protein stability index of a GFP-peptide fusion (GPS, HEK-293T) (PSI 1-6); higher = more stable. The settings on record: c terminus: a fixed tail appended.
With TNIRLVNVPSSSLPAQPNRKPGMS, the protein stability index amounted to 3.1.

Consider TNIRLLNVPSSSLPAQPNRKPGMS, for which the protein stability index was 2.99.

As to TNIRLCNVPSSSLPAQPNRKPGMS, the protein stability index was found to be 3.56.

Take TNIRLFNVPSSSLPAQPNRKPGMS: the protein stability index worked out at 3.28.

In the case of TNIRLQNVPSSSLPAQPNRKPGMS, the protein stability index came to 3.19.

For TNIRLRNVPSSSLPAQPNRKPGMS, the protein stability index is 4.04.

As for TNIRLWNVPSSSLPAQPNRKPGMS, the protein stability index turned out to be 3.34.

For TNIRLTNVPSSSLPAQPNRKPGMS, the protein stability index amounted to 3.75.

As to TNIRLENVPSSSLPAQPNRKPGMS, the protein stability index amounted to 4.48.

Turning to TNIRLMNVPSSSLPAQPNRKPGMS, the protein stability index was 3.36.

Regarding TNIRLANVPSSSLPAQPNRKPGMS, the protein stability index worked out at 3.96.

Turning to TNIRLINVPSSSLPAQPNRKPGMS, the protein stability index worked out at 2.71.

For the variant TNIRLKNVPSSSLPAQPNRKPGMS, the protein stability index was 4.23.

Turning to TNIRLSNVPSSSLPAQPNRKPGMS, the protein stability index was 4.44.

On to TNIRLGNVPSSSLPAQPNRKPGMS, for which the protein stability index came to 4.26.

Turning to TNIRLHNVPSSSLPAQPNRKPGMS, the protein stability index was 3.02.

Turning to TNIRLDNVPSSSLPAQPNRKPGMS, the protein stability index is 4.36.

On to TNIRLNNVPSSSLPAQPNRKPGMS, for which the protein stability index was 4.18.

For TKIRLPNVPSSSLPAQPNRKPGMS, the protein stability index stood at 4.24.

TWIRLPNVPSSSLPAQPNRKPGMS: the protein stability index was 3.01.

Consider TIIRLPNVPSSSLPAQPNRKPGMS, for which the protein stability index worked out at 3.44.

In the case of TCIRLPNVPSSSLPAQPNRKPGMS, the protein stability index is 3.87.

Consider TYIRLPNVPSSSLPAQPNRKPGMS, for which the protein stability index was 3.51.

For the variant TMIRLPNVPSSSLPAQPNRKPGMS, the protein stability index was 4.66.

Turning to TSIRLPNVPSSSLPAQPNRKPGMS, the protein stability index came to 4.7.

On to TDIRLPNVPSSSLPAQPNRKPGMS, for which the protein stability index is 4.77.

On to TFIRLPNVPSSSLPAQPNRKPGMS, for which the protein stability index stood at 3.43.

TQIRLPNVPSSSLPAQPNRKPGMS: the protein stability index was 4.27.

On to TPIRLPNVPSSSLPAQPNRKPGMS, for which the protein stability index turned out to be 5.25.

For the variant TLIRLPNVPSSSLPAQPNRKPGMS, the protein stability index is 3.44.

On to TGIRLPNVPSSSLPAQPNRKPGMS, for which the protein stability index came to 4.24.

As for TRIRLPNVPSSSLPAQPNRKPGMS, the protein stability index is 4.08.

On to TEIRLPNVPSSSLPAQPNRKPGMS, for which the protein stability index was found to be 5.05.

For the variant TVIRLPNVPSSSLPAQPNRKPGMS, the protein stability index is 4.16.

Turning to THIRLPNVPSSSLPAQPNRKPGMS, the protein stability index amounted to 4.51.

As for TTIRLPNVPSSSLPAQPNRKPGMS, the protein stability index was determined as 4.59.

As to TAIRLPNVPSSSLPAQPNRKPGMS, the protein stability index was found to be 4.67.

The variants in the next data set derive from B2. The description is as above. The note with it: c terminus: a fixed tail appended.
As to YDPDYIQCPYVQRRFNENAADRHI, the protein stability index was 3.57.

For YDPDYIQCPYGQRRFNENAADRHI, the protein stability index worked out at 3.75.

Take YDPDYIQCPYKQRRFNENAADRHI: the protein stability index is 3.57.

In the case of YDPDYIQCPYYQRRFNENAADRHI, the protein stability index worked out at 3.45.

Turning to YDPDYIQCPYNQRRFNENAADRHI, the protein stability index is 4.36.

On to YDPDFIQCPYCQRRFNENAADRHI, for which the protein stability index was 4.07.

Consider YDPDYIWCPYCQRRFNENAADRHI, for which the protein stability index turned out to be 2.83.

As to YDPDYIQCPYCQRRFNENMADRHI, the protein stability index came out at 3.88.

As to YDPDYIQCPYCQRRFNENAADRFI, the protein stability index was 3.3.

For YDPDYIQCPYCQRRFNENAADRKI, the protein stability index worked out at 4.11.

On to YEPDYIQCPYCQRRFNENAADRHI, for which the protein stability index amounted to 4.93.

For YDPTYIQCPYCQRRFNENAADRHI, the protein stability index was 4.08.

In the case of YDPGYIQCPYCQRRFNENAADRHI, the protein stability index was 4.28.

For YDPDYIQCPYCQRRFQENAADRHI, the protein stability index amounted to 4.56.

As for YDPDYIQCPYCQRRFVENAADRHI, the protein stability index was found to be 4.39.

Regarding YDPDYIQCPYCQRRFSENAADRHI, the protein stability index turned out to be 4.56.

YDPDYIQCCYCQRRFNENAADRHI: the protein stability index amounted to 2.59.

As for YDPDYIQCLYCQRRFNENAADRHI, the protein stability index was determined as 2.09.

With YDPDYIQCIYCQRRFNENAADRHI, the protein stability index stood at 2.29.

Regarding YDPDYIQCPYCQARFNENAADRHI, the protein stability index worked out at 3.76.

Regarding YDPDYIQCPYCQNRFNENAADRHI, the protein stability index was 3.68.

Take YDPDYIQCPYCQRQFNENAADRHI: the protein stability index came out at 4.24.

Turning to YDPDYIQCPYCQRTFNENAADRHI, the protein stability index was determined as 4.45.

Turning to YDPDYIQCPYCQRLFNENAADRHI, the protein stability index was determined as 4.28.

Turning to YDPDYIQCPYCQRRFNENAADWHI, the protein stability index stood at 3.15.

With YDPDYIQCPYCQRRFNENAADDHI, the protein stability index worked out at 4.57.

As to YDPDYIQCPYCQRRFNENAADPHI, the protein stability index was 4.29.

As for YDPDYIQCPYCQRRFNENAADFHI, the protein stability index amounted to 3.26.

On to YDPDYIQCPYCQRRFNENAADRHR, for which the protein stability index was 3.9.

In the case of YDPDYIQCPYCQRRFNENAADRHC, the protein stability index was determined as 4.12.

With YDPDYTQCPYCQRRFNENAADRHI, the protein stability index was 3.56.

In the case of YDPDYHQCPYCQRRFNENAADRHI, the protein stability index worked out at 3.71.

Consider YDPDYPQCPYCQRRFNENAADRHI, for which the protein stability index turned out to be 3.37.

On to YDPDYSQCPYCQRRFNENAADRHI, for which the protein stability index came to 3.44.

For the variant YDPDYIQCPYCQRRFNDNAADRHI, the protein stability index worked out at 4.37.

Regarding YDPDYIQCPYCQRRFNGNAADRHI, the protein stability index came to 4.5.

Regarding YDPDYIQCPYCQRRFNNNAADRHI, the protein stability index came to 5.01.

As to YDPDYIQCPYCQRRFNECAADRHI, the protein stability index was determined as 4.15.

Take YDPDYIQCPYCQRRFNELAADRHI: the protein stability index was 3.93.

Regarding YDPDYIQCPYCQRRFNEAAADRHI, the protein stability index was 4.22.

Turning to YDPDYIQCPYCQRRFNESAADRHI, the protein stability index came to 4.28.

Turning to YDPDYIQCPYCQRRFNERAADRHI, the protein stability index turned out to be 3.71.

Regarding TDPDYIQCPYCQRRFNENAADRHI, the protein stability index turned out to be 4.79.

For the variant VDPDYIQCPYCQRRFNENAADRHI, the protein stability index stood at 4.4.

As for MDPDYIQCPYCQRRFNENAADRHI, the protein stability index came out at 4.24.

On to YDPDYIQCPYCQRRFNENAHDRHI, for which the protein stability index amounted to 3.95.

As for YDPDYIQCPYCDRRFNENAADRHI, the protein stability index was determined as 3.26.

On to YDPDYIQCPYCERRFNENAADRHI, for which the protein stability index turned out to be 4.04.

For the variant YDPDYIQCPYCFRRFNENAADRHI, the protein stability index was found to be 4.24.

On to YDPDYIQCPYCWRRFNENAADRHI, for which the protein stability index was 3.61.

Take YDEDYIQCPYCQRRFNENAADRHI: the protein stability index turned out to be 4.63.

With YDLDYIQCPYCQRRFNENAADRHI, the protein stability index was 3.55.

YDNDYIQCPYCQRRFNENAADRHI: the protein stability index turned out to be 4.46.

YDPDYIQCPMCQRRFNENAADRHI: the protein stability index came out at 3.53.

As to YDPDYIQCPCCQRRFNENAADRHI, the protein stability index was determined as 3.23.

As for YDPDYIQFPYCQRRFNENAADRHI, the protein stability index turned out to be 3.17.

Consider YDPDYIQEPYCQRRFNENAADRHI, for which the protein stability index was 4.37.
